These results are taken from article PMC4324310.

In data set [1] the test system is T1, RovS (Streptococcus agalactiae NEM316), ORF:d252635c.
T1 sequence: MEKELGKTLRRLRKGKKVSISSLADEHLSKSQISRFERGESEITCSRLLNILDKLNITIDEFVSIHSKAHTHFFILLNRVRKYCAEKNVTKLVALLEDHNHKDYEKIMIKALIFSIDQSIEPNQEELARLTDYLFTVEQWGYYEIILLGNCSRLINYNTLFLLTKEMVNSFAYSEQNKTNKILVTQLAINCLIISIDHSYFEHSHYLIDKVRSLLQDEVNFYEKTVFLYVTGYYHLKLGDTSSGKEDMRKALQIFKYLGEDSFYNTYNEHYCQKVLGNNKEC
Kind of data set: EMSA. Background: A gel shift assay detects complexes by their altered migration in electrophoresis.

The test system is the same in data set [2]. As to the kind of experiment: competition.

“ATTAGTGACTTCTTTCATTGAAAATGATAGAATATAGGTGTATGGGAAACTTCCCAAAAATATTTAAGGAGATGTTTAGAAATGACTGCAACTAAACAACATAAAAAAGTTATCCTCGTTGGTGATGGTG (double strand) [PldhL probe]”: the binding result in data set [1] and in data set [2] was “no binding” each time. For “CTAACTTTTTTTCCTTTACGTAATCTTCTTAGTGTTTTTCCTAATTCTTTTTCCATTTTTATTTAAAAGACCCTTTAAATCCATTATATAATACAAGTACAAAATAGAAAATCAGAAAGG (double strand) [Pshp without the motif probe]”, the binding entry in data set [1] (part of the binding motif deleted) is “no binding”.

Regarding “GCAATTTATTATTAATTTGTATGTTTAAAATTAAATAGTTGATATCTAAAACATGATATTTTTAAATTTTCCTTTAATATTATAAAGCATGATAGATAGTCATACTAACATTAAGATTTACAATGAGGTAATAGTATATT (double strand) [PfbsA probe]”, the binding result in data set [1] was “no binding”.
